Key:
SlAAAD = target: T1, SlAAAD (Solanum lycopersicum, UniProt Q1KSC6); assay: HPLC-EC decarboxylation assay; format: biochemical; conditions: 5 mM substrate, 20 mM HEPES pH 7.5, 25°C, 10 min
T1 construct: gene AADC1A; recombinant from bacterial expression plasmid pTYB12 (IMPACT-CN)
T1 sequence (Q1KSC6 1-471): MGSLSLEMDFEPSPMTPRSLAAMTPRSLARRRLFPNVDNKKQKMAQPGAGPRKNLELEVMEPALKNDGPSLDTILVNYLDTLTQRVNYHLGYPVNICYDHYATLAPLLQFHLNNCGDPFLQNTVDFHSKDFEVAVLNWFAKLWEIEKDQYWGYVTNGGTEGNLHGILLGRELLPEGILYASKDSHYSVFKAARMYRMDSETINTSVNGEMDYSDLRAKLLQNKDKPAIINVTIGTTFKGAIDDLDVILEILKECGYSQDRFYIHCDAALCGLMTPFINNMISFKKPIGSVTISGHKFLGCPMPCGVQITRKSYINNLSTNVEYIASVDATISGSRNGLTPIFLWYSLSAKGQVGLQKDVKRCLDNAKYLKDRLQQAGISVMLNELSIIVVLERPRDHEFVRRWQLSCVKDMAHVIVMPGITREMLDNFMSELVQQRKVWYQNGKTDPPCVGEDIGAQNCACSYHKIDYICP

AtSDC = target: T2, AtSDC (Arabidopsis thaliana, UniProt Q9MA74); assay: HPLC-EC decarboxylation assay; format: biochemical; conditions: 5 mM substrate, 20 mM HEPES pH 7.5, 25°C, 10 min
T2 construct: gene SDC; recombinant from bacterial expression plasmid pTYB12 (IMPACT-CN)
T2 sequence (Q9MA74 1-482): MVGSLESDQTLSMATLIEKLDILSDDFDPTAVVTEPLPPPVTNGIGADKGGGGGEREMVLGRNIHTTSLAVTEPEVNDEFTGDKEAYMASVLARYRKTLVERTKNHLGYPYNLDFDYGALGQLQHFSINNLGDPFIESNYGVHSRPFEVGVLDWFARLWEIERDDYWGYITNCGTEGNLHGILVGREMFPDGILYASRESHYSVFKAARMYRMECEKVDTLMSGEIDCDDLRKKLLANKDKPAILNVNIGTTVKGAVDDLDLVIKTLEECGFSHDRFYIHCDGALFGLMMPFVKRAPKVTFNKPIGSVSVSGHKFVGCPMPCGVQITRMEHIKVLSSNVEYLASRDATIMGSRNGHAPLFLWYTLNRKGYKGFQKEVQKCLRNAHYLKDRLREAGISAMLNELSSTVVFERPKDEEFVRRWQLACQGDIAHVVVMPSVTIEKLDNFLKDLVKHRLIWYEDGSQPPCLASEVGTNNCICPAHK

[1] = substrate: CSCC[C@H](N)C(=O)O; assay: peroxide assay (Pierce Quantitative Peroxide Assay Kit); format: biochemical, Medicago truncatula; conditions: 20 mM HEPES pH 7.5, 25°C, 5 min, hyperbolic regression
Description: (§1) peroxide assay (Pierce Quantitative Peroxide Assay Kit) on MtAAS

[2] = substrate: N[C@@H](Cc1c[nH]c2ccccc12)C(=O)O; assay: as above; format: biochemical, Medicago truncatula; conditions: 20 mM HEPES pH 7.5, 25°C, 5 min, hyperbolic regression
Description: as §1

[3] = substrate: N[C@@H](Cc1ccccc1)C(=O)O; assay: as above; format: biochemical, Medicago truncatula; conditions: 20 mM HEPES pH 7.5, 25°C, 5 min, hyperbolic regression
Description: as §1

purified protein = substrate: CC(C)C[C@H](N)C(=O)O; assay: purified protein; conditions: 20 mM HEPES pH 7.5, 25°C, 5 min, hyperbolic regression
[4] = substrate: CSCC[C@H](N)C(=O)O; assay: peroxide assay (Pierce Quantitative Peroxide Assay Kit); format: biochemical, Cicer arietinum; conditions: 20 mM HEPES pH 7.5, 25°C, 5 min, hyperbolic regression
Description: (§2) peroxide assay (Pierce Quantitative Peroxide Assay Kit) on CaAAS

[5] = substrate: N[C@@H](Cc1c[nH]c2ccccc12)C(=O)O; assay: as above; format: biochemical, Cicer arietinum; conditions: 20 mM HEPES pH 7.5, 25°C, 5 min, hyperbolic regression
Description: as §2

[6] = substrate: N[C@@H](Cc1ccccc1)C(=O)O; assay: as above; format: biochemical, Cicer arietinum; conditions: 20 mM HEPES pH 7.5, 25°C, 5 min, hyperbolic regression
Description: as §2

N[C@@H](Cc1ccccc1)C(=O)O [phenylalanine]
HPLC-EC decarboxylation assay (SlAAAD): SlAAAD decarboxylation assay demonstrated activity towards tyrosine, dopa, phenylalanine and tryptophan

N[C@@H](CO)C(=O)O [serine]
HPLC-EC decarboxylation assay (AtSDC): AtSDC only has activity towards serine

N[C@@H](Cc1ccc(O)cc1)C(=O)O [tyrosine]
HPLC-EC decarboxylation assay (SlAAAD): SlAAAD decarboxylation assay demonstrated activity towards tyrosine, dopa, phenylalanine and tryptophan

B1: MtAAS (Medicago truncatula) (protein)
chain: MAMTFIPDAELLPTVVVNAKLSREEKHDEENIIGLTNLDVTKSIGETDANLDAIIAHYAQTITKYNMRNLGYPTNQDFNYEALAPLLQFHLNNAGDPFLGSSFSLNSMAFEVSVLDWFAKLWEIEKNEYWGYVTTGGTEGNLHGILAGREQLPDGILYTSQDSHYSIAKIAKMYRMKCVKVDSLLSGEIDCVQLEASLLAHKDKPAIINLNIGTTLKGGIDDLDLVIQTLNKCGFTRDRFYIHCDGALFGIMLPFIKQAPRISFKKPIDSVTISGHKFLGCPSPCGVLITRLKYMNALSRDVDIIASRDATITGSRCGHAPIFLWYALKKRGLIGLENEVHECIMKAHYLLNLLRDAGIGAMLNKFSNIVVFERPLDDHFTRRWNLASNKNTAHVVVLKHVTVEMLDSFVREFTEKQSIWYKDEQFQPPCIANDVGSRNCACSIHNLSRNC
notes: recombinant from bacterial expression plasmid pTYB12 (IMPACT-CN)
Km [1]: 1900 ± 200 µM | kcat [1]: 0.144 ± 0.006 s⁻¹ | kcat/Km [1]: 80 ± 10 M⁻¹ s⁻¹ | Km [2]: 1700 ± 300 µM | kcat [2]: 0.125 ± 0.008 s⁻¹ | kcat/Km [2]: 70 ± 10 M⁻¹ s⁻¹ | Km [3]: 20 ± 10 µM | kcat [3]: 0.358 ± 0.005 s⁻¹ | kcat/Km [3]: 17900 ± 2290 M⁻¹ s⁻¹ | Km (purified protein): 7600 ± 700 µM | kcat (purified protein): 0.197 s⁻¹ | kcat/Km (purified protein): 30 M⁻¹ s⁻¹

B2: CaAAS (Cicer arietinum) (protein)
chain: MGSLEGNNMLSMVVSNAKLAREEERQENINITNTNLTINQCIGETDANLKAIITHYVDTLTYSSLRNLGYPTNQDFNYDALASLFHFHLNNAGDPFVGSSFSLNSTKFEVGVLDWFAELWEIEKSDYWGYVTTGGTEGNLHGILVGREQFPDGILYTSQDSHYSIFKIARMYRMECVKVGSLLSGEIDCVELEASLLAHKDKPAIINLNIGTTMKGGIDDLDIVIQTLKKCGFTRDRFYIHCDGALFGIMLPFIKQAQRISFKKPIDSVTISGHKFLGCPSPCGVVITRLKYINELSRDVEIIASRDATITGSRCGHAPILLWYALKKKGLIGLKNEVHECIINARYLLDQLRDAGIGAMLNEFSNIVVFEKPLDDNFTRRWNLATKGNIAHVVVLMHVTKEMLDTFVREFIQKRSIWYKHGHFQPLCIANHVGSTNCVCSIHKLS
notes: as for B1
Km (purified protein): 4600 ± 400 µM | kcat (purified protein): 0.467 s⁻¹ | kcat/Km (purified protein): 100 M⁻¹ s⁻¹ | Km [4]: 1620 ± 200 µM | kcat [4]: 0.351 ± 0.012 s⁻¹ | kcat/Km [4]: 220 ± 10 M⁻¹ s⁻¹ | Km [5]: 2800 ± 700 µM | kcat [5]: 0.187 ± 0.016 s⁻¹ | kcat/Km [5]: 70 ± 100 M⁻¹ s⁻¹ | Km [6]: 90 ± 10 µM | kcat [6]: 0.595 ± 0.009 s⁻¹ | kcat/Km [6]: 6600 ± 650 M⁻¹ s⁻¹

— paper PMC4177580, “Diverse functional evolution of serine decarboxylases: identification of two novel acetaldehyde synthases that uses hydrophobic amino acids as substrates” (BMC Plant Biology, 2014)
